Read-outs that look alike come from different tables or passages of the source. Where no end group is shown, it is not given here.
What was measured:
[1] = mouse, in vivo, sc
Method: (A) Structures, formulations, and radiolabeling strategies of CpG derivatives for PET-based screening. (B) Representative coronal PET images showing FVB mice at 6 h post s.c. injection of CpG derivatives at tail base. […] White arrow heads mark IN and AX LNs. (C) Amounts of CpG derivatives in IN and AX LNs quantified from 3D-reconstructed, decay-corrected PET images (n=4-8).
Coronal (coro), transverse (trans), and 3D projection (proj) of PET images showing efficient LN-targeted delivery and whole-body distribution of MH2C over 3 days post injection. White arrow heads mark IN and AX LNs. The scale bar for 3D proj was based on the maximal signal intensity in each image. (Injection dose: 120 μCi; ID: injection dose).
Mice were s.c. injected with ^64Cu-radiolabeled AlbiCpG, followed by PET imaging to reveal its 3D biodistribution in mice over 3 days (FIG. 5B). […] Based on PET, decay-corrected radioactivity in draining inguinal (IN) LNs, and axillary (AX) LNs. LNs were quantified as the percentage of injection dose (% ID) (FIG. 5C).

[2] = parameters: species or system BALB/c mice; conditions: mouse, in vivo
From the text: FIGS. 8A-8E. Biodistribution and LN retention of CpG on day3 and day5, as determined by ROI signal quantification of PET images and γ-counting of isolated organs. (A) PET quantification of the % ID of different forms of CpG in major organs on Day3. (B) Detailed PET quantification of the % ID of different forms of CpG in IN and AX LNs on Day3. (C) γ-counting quantification of the % ID/g of different forms of CpG in LNs on Day3. (D) γ-counting quantification of the % ID/g of different forms of CpG in major organs on Day5. (E) γ-counting quantification of the % ID/g of different forms of CpG in LNs on Day5. Due to signal decay over 5 days, the radioactivity was too low to be detected by PET on day5, so the % injection dose on Day5 was not determined by PET. ID: injection dose; ID/g: injection dose/gram of tissue.
The blood had less than 4% ID/g for all tested formulations. On day 5 post injection, even though the radioactivity of ^64Cu-labeled vaccines was too low to be sensitively detected by PET, the radioactivity of ex vivo organs were sensitively measured to determine the biodistribution profile (FIGS. 8D-8E).

[3] = PET imaging of 64Cu-labeled AlbiAdpgk LN delivery; format: in vivo, FVB mice
Method: FIG. 25A-25D. Representative coronal and transverse of PET images (A) at 6 h post injection and quantification (B) of AlbiAdpgk, free Adpgk, and IFA(Adpgk) in IN and AX LNs of FVB mice (n=4/group). White arrows mark the LNs. (C) Quantified biodistribution of ^64Cu-labeled AlbiAdpgk in organs by γ-counting of excised organs at 48 h post injection. (D) % ID at injection sites quantified from decay-corrected PET scans.
(§1) Encouraged by the efficient delivery of peptide antigen, AlbiVax-based neoantigen delivery was exploited for personalized tumor immunotherapy. Adpgk, a neoantigen [ASMTN(R→M)ELM] (SEQ ID NO: 86) in MC38 (colon cancer) tumor cells^7 was used. The conjugation of hydrophilic MEB improved the water solubility of MEB-Adpgk (denoted as AlbiAdpgk).

[4] = water solubility of MEB-peptide conjugates; format: physicochemical
From the text: (§2) Tyrosinase-related protein 2 (Trp2), a melanoma-associated subunit Ag, was used in this study. Trp2 with an N-terminal cysteine was conjugated with MEB to prepare albumin-binding MEB-Trp2 (denoted as AlbiTrp2). Hydrophilic MEB increased the water solubility of AlbiTrp2 relative to Trp2, and the resulting amphiphilic AlbiTrp2 self-assembled into nanoparticles in aqueous solution (FIG. 21A, 21B). […] To study LN-targeted Trp2 delivery, ^64Cu-labeled AlbiTrp2 was s.c. injected at the tail base of FVB mice for PET imaging (FIG. 22A).
as §1

[5] = test system: BMDCs and RAW264.7 macrophages; experiment: ELISA of proinflammatory factors in culture medium (in vitro immunostimulation); format: cell-based
albumin [6] = experiment: method not named; recovery of MEB fluorescence on albumin binding (FIG. 21C)
Target sequence in this assay (P02768 25-609): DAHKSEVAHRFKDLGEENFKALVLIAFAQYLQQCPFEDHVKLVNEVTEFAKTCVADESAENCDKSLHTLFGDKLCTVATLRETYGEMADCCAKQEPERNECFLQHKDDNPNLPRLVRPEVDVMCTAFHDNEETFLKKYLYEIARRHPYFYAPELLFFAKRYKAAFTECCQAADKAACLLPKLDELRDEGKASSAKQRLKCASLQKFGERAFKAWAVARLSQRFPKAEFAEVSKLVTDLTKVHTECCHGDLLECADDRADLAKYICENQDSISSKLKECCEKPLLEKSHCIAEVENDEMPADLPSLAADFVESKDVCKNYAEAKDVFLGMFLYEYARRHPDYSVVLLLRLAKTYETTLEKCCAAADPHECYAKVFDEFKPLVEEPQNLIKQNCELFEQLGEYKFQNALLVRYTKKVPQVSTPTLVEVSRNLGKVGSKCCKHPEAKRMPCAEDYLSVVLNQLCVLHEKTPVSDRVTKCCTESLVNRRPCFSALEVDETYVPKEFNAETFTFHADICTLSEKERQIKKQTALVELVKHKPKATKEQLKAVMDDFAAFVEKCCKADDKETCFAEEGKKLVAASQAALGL

[7] = PET imaging of vaccine uptake in LNs of B16F10 tumor-bearing mice; format: in vivo, C57BL/6 mice
From the text: FIG. 23A-23D. Representative PET images (A) and the corresponding quantification (B) showing the uptake of AlbiCpG (MEB-(HEG)2-CpG) in draining IN LNs and AX LNs of B16F10 tumor-bearing C57BL/6 mice. […] (C-D) Representative PET images (c) and the corresponding quantification (D) showing the uptake of AlbiTrp2 in LNs (IN and AX) of B16F10 tumor-bearing C57BL/6 mice. (Coro: coronal; trans: transverse; proj: projection; ID: injection dose; ID/g: ID/gram of organ weight)
For immunotherapy, C57BL/6 mice s.c. inoculated with 3×10^5 B16F10 cells were treated with AlbiCpG (2 nmole CpG equivalents)+AlbiTrp2 (20 μg) on days 6, 12, and 18 post inoculation. […] Furthermore, using a combination of multiple synergistic therapeutics can be used.

albumin [8] = experiment: albumin binding of AlbiTrp2; conditions: R^2=0.88
From the text: FIG. 21A-21C. TEM (A) and AFM (B) images of albumin/AlbiTrp2 nanocomplexes. The length-height graph in (B) was shown for the marked crossline in AFM image. (C) Albumin binding of AlbiTrp2 recovered the MEB fluorescence.
as §2

[9] = PET imaging of 64Cu-labeled AlbiTrp2 LN delivery; format: in vivo, FVB mice; conditions: within 3 days
From the text: FIG. 22A-22B. […] White arrows mark LNs.
as §2

Substance: CpG 1826
- accumulation / retention in LNs [1]: no apparent accumulation in any of the LNs
- % ID/g in inguinal LNs [2]: 8.3±4.7 % ID/g
- radioactivity density in axillary LNs [2]: 3.2±1.2 %/g

Substance: AlbiAdpgk: MEB conjugate of Adpgk neoantigen ASMTNMELM (SEQ ID NO: 86) of MC38 (also: MEB (albumin-binding) conjugate, site not given here)
- amount trapped at the injection sites relative to IFA(Adpgk) ([3]; PET): Significantly less
- AUC in IN and AX LNs relative to Adpgk or IFA(Adpgk) ([3]; within 2 days): 43 fold
- water solubility ([4]; relative to unconjugated peptide): improved

Substance: MEB-GpC: MEB conjugate of control GpC ODN (TCCATGAGCTTCCTGAGCTT, SEQ ID NO: 34) (DNA, backbone and methylation of C not given here; further chemistry not fully specified)
- secretion of proinflammatory factors (ELISA) ([5]; BMDCs and RAW264.7 macrophages): did not stimulate these cells significantly more potently than the background
- immunostimulatory activity (ELISA of culture medium) ([5]; RAW264.7 macrophages, alone or premixed with HSA): inactive for immunostimulation

Substance: MEB-Trp2 (albumin-binding conjugate of maleimide-functionalized truncated Evans Blue with Trp2 peptide bearing an N-terminal cysteine) (from UniProt P29812 180-188)
- Kd (albumin [6]): 790 nM

Substance: AlbiTrp2: Trp2 peptide with N-terminal cysteine conjugated with MEB (CSVYDFFVWL)
- delivery to LNs in tumor-bearing mice [7]: efficiently delivered to LNs except tumor draining axillary LNs
- Kd (albumin [8]): 790 nM
- AUC in LNs relative to free Trp2 [9]: 91 fold
- water solubility [4]: increased

— patent US20190298824A1, “ALBUMIN-BINDING IMMUNOMODULATORY COMPOSITIONS AND METHODS OF USE THEREOF” (THE UNITED STATES OF AMERICA, as represented by the …, priority 2016, published 2019)
